Data reported in US20230038638A1, “COMPLEMENT FACTOR I-RELATED COMPOSITIONS AND METHODS” (published 2023).

Experiments:
[1] = molecular target: soluble human C3b (human) (UniProt P01024)
[2] = molecular target: T1, human C4b (human) (UniProt P0C0L4)
T1 sequence: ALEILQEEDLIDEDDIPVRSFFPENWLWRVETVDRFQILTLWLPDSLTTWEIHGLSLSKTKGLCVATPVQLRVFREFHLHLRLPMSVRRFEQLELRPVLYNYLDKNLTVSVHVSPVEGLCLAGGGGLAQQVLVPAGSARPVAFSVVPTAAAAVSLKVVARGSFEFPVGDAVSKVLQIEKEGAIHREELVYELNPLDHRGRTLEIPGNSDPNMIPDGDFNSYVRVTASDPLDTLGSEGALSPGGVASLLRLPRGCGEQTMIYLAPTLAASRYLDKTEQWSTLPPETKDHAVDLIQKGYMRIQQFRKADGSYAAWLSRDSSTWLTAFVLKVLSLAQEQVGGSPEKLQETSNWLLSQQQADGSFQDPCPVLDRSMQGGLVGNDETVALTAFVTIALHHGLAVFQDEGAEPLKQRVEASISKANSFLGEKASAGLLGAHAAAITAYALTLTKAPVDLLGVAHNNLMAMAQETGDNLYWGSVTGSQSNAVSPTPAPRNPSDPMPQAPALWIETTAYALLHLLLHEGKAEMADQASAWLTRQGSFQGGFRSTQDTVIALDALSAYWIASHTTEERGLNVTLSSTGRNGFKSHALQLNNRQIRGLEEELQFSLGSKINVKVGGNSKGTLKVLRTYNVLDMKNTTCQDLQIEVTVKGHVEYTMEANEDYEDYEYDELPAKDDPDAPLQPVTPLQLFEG

Substance | iC3b Screen Ref Fold (fold of CFI-HSA wild type) [1] | C4b Screen Ref Fold (fold of CFI-HSA wild type) [2] | iC3b Screen Ref Fold (fold of reference) [1] | C4b Screen Ref Fold (fold of reference) [2]
CFI-HSA variant Y408M; P558S (enzyme) | 1.13 | 0.06 |  | 
CFI-HSA variant G406A; Y408L (enzyme) |  |  | 0.75 | 0.68
CFI-HSA P535W (enzyme) | 0.29 | 0.14 |  | 
CFI-HSA N531G; E457G; F464Y (enzyme) | 1.24 | 6.55 |  | 
CFI-HSA F480Y (enzyme) | 1.14 | 1.84 |  | 
CFI-HSA Y408L; E530R; N531G (enzyme) | 1.09 | 4.67 |  | 
CFI-HSA D506F (enzyme) | -0.03 | 0.35 |  | 
CFI-HSA variant I322T (enzyme) |  |  | 0.01 | 0.03
CFI-HSA variant G344Y (enzyme) |  |  | 0.43 | 1.93
CFI-HSA variant P558S; S507A (enzyme) | -0.04 | 0.08 |  | 
CFI-HSA variant R557A; S507A (enzyme) | -0.02 | 0.08 |  | 
CFI-HSA D506Y (enzyme) | -0.05 | 0.02 |  | 
CFI-HSA F464H (enzyme) | 0.23 | 0.1 |  | 
CFI-HSA variant A405S; G406A; Y408L; Q409D (enzyme) |  |  | 0.06 | 0.11
CFI-HSA variant K340G; I345G (enzyme) |  |  | 0 | 0.14
CFI-HSA variant G469L; R456N; K458A; E461G; F537K (enzyme) |  |  | 0.01 | -0.02
CFI-HSA variant E461Q; S507A (enzyme) | -0.04 | -0.01 |  | 
CFI-HSA E457G; S507A (enzyme) | -0.01 | 0.01 |  | 
CFI-HSA fusion WT; GGSSGG (SEQ ID NO: 6); CR1(ccp15); CR1(ccp16); CR1(ccp17); fH(ccp4) (from UniProt P17927) (enzyme) |  |  | 0.01 | 2.57
CFI-HSA P535E (enzyme) | 0.24 | 0.45 |  | 
CFI-HSA variant Y372G (enzyme) |  |  | 0 | 0.08
CFI-HSA variant N422K; S507A (enzyme) | -0.03 | 0.03 |  | 

Substance | iC3b Screen Ref Fold (fold of CFI-HSA wild type) [1] | C4b Screen Ref Fold (fold of CFI-HSA wild type) [2] | iC3b Screen Ref Fold (fold of reference) [1] | C4b Screen Ref Fold (fold of reference) [2]
CFI-HSA variant I345G (enzyme) |  |  | -0.01 | 0.16
CFI-HSA variant N531G; S507A (enzyme) | -0.03 | -0.07 |  | 
CFI-HSA T346K; Y408L; K504D; E530K; N531G (enzyme) | 0.29 | 0.04 |  | 
CFI-HSA D506I (enzyme) | -0.02 | 0.16 |  | 
CFI-HSA Y408L; R462K; F464Y (enzyme) | 0.19 | 0.27 |  | 
CFI-HSA D425P (enzyme) | 0.72 | 0.29 |  | 
CFI-HSA E457G; E461Q; R462K (enzyme) | 1.54 | 6.74 |  | 
CFI-HSA variant L304G; P305G; K306G; L307G; S308G (enzyme) |  |  | 0.56 | 0
CFI-HSA D425V (enzyme) | 0.98 | 2.51 |  | 
CFI-HSA Y408L; S507A; N531G; GGSSGG (SEQ ID NO: 6); CCP_1-4 (enzyme) | 0.01 | 0.1 |  | 
CFI-HSA variant E416A; E457G; E461Q; R462K; F464Y; N531G (enzyme) | 3.21 | 3.68 |  | 
CFI-HSA Y408L; E461Q (enzyme) | 1.03 | 4.44 |  | 
CFI-HSA variant Y408F; K504Y (enzyme) | 0.97 | 1.67 |  | 
CFI-HSA variant E530F; S507A (enzyme) | -0.04 | 0.13 |  | 
CFI-HSA variant G344K (enzyme) |  |  | 0.16 | 0.36
CFI-HSA F464L (enzyme) | 0 | 0.15 |  | 
CFI-HSA variant P558G (enzyme) |  |  | 1.21 | 0.4
CFI-HSA variant A405S; G406R; Y408L; Q409D (enzyme) |  |  | 0.13 | -0.08
CFI-HSA E457G; S507A; GGSSGG (SEQ ID NO: 6); CCP_1-4 (enzyme) | 0.01 | 0.12 |  | 
CFI-HSA E457G; F464Y (enzyme) | 1.31 | 5.55 |  | 
CFI-HSA variant D425K; K504R (enzyme) | 2.05 | 0.12 |  | 
CFI-HSA D425Y (enzyme) | 1.15 | 2.87 |  | 

Substance | iC3b Screen Ref Fold (fold of CFI-HSA wild type) [1] | C4b Screen Ref Fold (fold of CFI-HSA wild type) [2] | iC3b Screen Ref Fold (fold of reference) [1] | C4b Screen Ref Fold (fold of reference) [2]
CFI-HSA D425E (enzyme) | 1.52 | 1.75 |  | 
CFI-HSA P535M (enzyme) | 0.6 | 0.68 |  | 
CFI-HSA fusion WT; GGSSGG (SEQ ID NO: 6); fH(ccp1); CR1(ccp16); CR1(ccp17); fH(ccp4) (from UniProt P17927) (enzyme) |  |  | 0 | 0.42
CFI-HSA variant R557A; N531M; Y403F; K504Y; E457N; E461L (enzyme) | 0.28 | 2.29 |  | 
CFI-HSA H362T; V463S; R456F; D459W; S343R (enzyme) | -0.01 | 0.3 |  | 
CFI-HSA variant R557A; N531M; Y403F; K504Y; E457G; E461V (enzyme) | 0.46 | 3.17 |  | 
CFI-HSA variant E461G (enzyme) |  |  | 0.94 | 0.31
CFI-HSA Y408L; N531G; E461Q; F464Y (enzyme) | 1.29 | 5.6 |  | 
CFI-HSA D506S (enzyme) | 0 | -0.02 |  | 
CFI-HSA variant E530F; F537K (enzyme) | 0.03 | 0 |  | 
CFI-HSA T346K; Y408L; N531G (enzyme) | 1.1 | 4.81 |  | 
CFI-HSA variant N531M; Y403F; K504Y; E457G; E461Q (enzyme) | 0.7 | 3.46 |  | 
CFI-HSA variant I317D-R318D-R319D-K320D-R321K; Y408L; N531G; E457G; E461Q; R462K; F464Y (enzyme) |  |  | 0.01 | -0.02
CFI-HSA variant E530F; K504R (enzyme) | 1.14 | 0.05 |  | 
CFI-HSA variant N531H (enzyme) |  |  | 0.74 | 1.16
CFI-HSA variant D425K; E530F; F537K; K504R; P558S (enzyme) | 0.09 | 0.16 |  | 
CFI-HSA variant P558S; F559L; I560V; Y563H (enzyme) |  |  | 1.24 | 0.63
CFI-HSA variant F559L (enzyme) |  |  | 1.54 | 0.73
CFI-HSA variant E461W (enzyme) |  |  | 0.67 | 0.8
CFI-HSA T407G; Y408L; N531G (enzyme) | 1.43 | 0.46 |  | 
